Source: publication PMC9482650, “Quantitative fragmentomics allow affinity mapping of interactomes” (Nature Communications, 2022)
Each block holds one binder with its values, some of them ahead of it.

Tests used:
Assay in all cases: holdup assay
Set-up in all cases: key: below the threshold = too weak to quantify, mostly under pKd 3.1 to 4
APBA1_1, Q02410 = target: T1, APBA1_1, Q02410
T1 sequence (Q02410 651-752, limits assumed, looked up): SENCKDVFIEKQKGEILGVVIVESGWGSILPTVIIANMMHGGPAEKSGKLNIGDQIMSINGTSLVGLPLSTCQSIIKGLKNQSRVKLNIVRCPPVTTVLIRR

CASK, O14936 = target: CASK, O14936
DLG3_3, Q92796 = target: T2, DLG3_3, Q92796
T2 sequence (Q92796 374-475, limits assumed, looked up): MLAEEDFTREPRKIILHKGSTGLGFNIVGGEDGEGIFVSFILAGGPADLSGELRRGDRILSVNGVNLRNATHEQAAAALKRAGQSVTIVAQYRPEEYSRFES

FRMPD3, Q5JV73 = target: FRMPD3, Q5JV73
GOPC, Q9HD26 = target: GOPC, Q9HD26
GORASP2, Q9H8Y8 = target: GORASP2, Q9H8Y8
GRID2IP_1, A4D2P6 = target: GRID2IP_1, A4D2P6
GRID2IP_2, A4D2P6 = target: GRID2IP_2, A4D2P6
HTRA2, O43464 = target: HTRA2, O43464
IL16_4, Q14005 = target: IL16_4, Q14005
Inadl_3, Q8NI35 = target: Inadl_3, Q8NI35
Inadl_9, Q8NI35 = target: Inadl_9, Q8NI35
LIMK2, P53671 = target: LIMK2, P53671
LNX1_2, Q8TBB1 = target: LNX1_2, Q8TBB1
LNX1_3, Q8TBB1 = target: LNX1_3, Q8TBB1
LNX2_2, Q8N448 = target: T3, LNX2_2, Q8N448
T3 sequence (Q8N448 334-432, limits assumed, looked up): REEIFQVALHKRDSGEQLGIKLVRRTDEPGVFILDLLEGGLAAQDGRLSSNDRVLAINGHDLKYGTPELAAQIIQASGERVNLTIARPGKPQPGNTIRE

MAGI2_3, Q86UL8 = target: MAGI2_3, Q86UL8
MAGI2_4, Q86UL8 = target: MAGI2_4, Q86UL8
MAST1, Q9Y2H9 = target: MAST1, Q9Y2H9
MAST2, Q6P0Q8 = target: MAST2, Q6P0Q8
NHERF4_2, Q86UT5 = target: NHERF4_2, Q86UT5
PDZD7_3, Q9H5P4 = target: T4, PDZD7_3, Q9H5P4
T4 sequence (Q9H5P4 857-944, limits assumed, looked up): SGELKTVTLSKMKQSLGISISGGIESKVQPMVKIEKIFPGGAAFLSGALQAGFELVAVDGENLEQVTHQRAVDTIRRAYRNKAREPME

PDZRN3_1, Q9UPQ7 = target: T5, PDZRN3_1, Q9UPQ7
T5 sequence (Q9UPQ7 244-349, limits assumed, looked up): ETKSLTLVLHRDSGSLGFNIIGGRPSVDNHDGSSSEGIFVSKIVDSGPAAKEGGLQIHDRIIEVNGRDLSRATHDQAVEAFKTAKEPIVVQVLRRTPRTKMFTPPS

PDZRN4_1, Q6ZMN7 = target: PDZRN4_1, Q6ZMN7
RADIL, Q96JH8 = target: T6, RADIL, Q96JH8
T6 sequence (Q96JH8 971-1071, limits assumed, looked up): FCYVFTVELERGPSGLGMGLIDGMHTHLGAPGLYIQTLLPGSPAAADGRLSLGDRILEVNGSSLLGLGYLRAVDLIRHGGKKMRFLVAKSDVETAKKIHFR

RHPN1, Q8TCX5 = target: T7, RHPN1, Q8TCX5
T7 sequence (Q8TCX5 508-602, limits assumed, looked up): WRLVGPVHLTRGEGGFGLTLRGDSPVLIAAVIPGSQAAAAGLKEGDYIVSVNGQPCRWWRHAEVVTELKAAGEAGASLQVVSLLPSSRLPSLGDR

SNTG2, Q9NY99 = target: T8, SNTG2, Q9NY99
T8 sequence (Q9NY99 68-166, limits assumed, looked up): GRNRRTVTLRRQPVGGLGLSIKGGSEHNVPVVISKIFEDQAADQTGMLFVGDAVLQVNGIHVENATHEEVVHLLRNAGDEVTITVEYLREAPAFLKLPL

TJP1_2, Q07157 = target: TJP1_2, Q07157
TJP2_1, Q9UDY2 = target: TJP2_1, Q9UDY2
[1] = plain residues with an end cap or a label only (N-terminal biotin on a linker: ttds)
[2] = plain residues with an end cap or a label only (N-terminal biotin on a linker: ado-ado)
[3] = plain residues with an end cap or a label only (N-terminal biotin on a linker: ahx)

Chain of TJP1_2, Q07157 (Q07157 181-274): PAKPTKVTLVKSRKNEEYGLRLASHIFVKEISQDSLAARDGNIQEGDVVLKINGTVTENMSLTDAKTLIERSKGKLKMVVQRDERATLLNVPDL
Chain of Inadl_9, Q8NI35 (Q8NI35 1530-1615): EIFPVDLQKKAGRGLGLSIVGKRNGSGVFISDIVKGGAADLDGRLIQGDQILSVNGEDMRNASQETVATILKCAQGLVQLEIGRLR
Chain of LIMK2, P53671 (P53671 143-248): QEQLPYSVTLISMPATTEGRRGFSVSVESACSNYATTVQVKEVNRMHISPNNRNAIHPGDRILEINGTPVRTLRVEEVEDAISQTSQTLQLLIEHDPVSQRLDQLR
Chain of NHERF4_2, Q86UT5 (Q86UT5 220-308): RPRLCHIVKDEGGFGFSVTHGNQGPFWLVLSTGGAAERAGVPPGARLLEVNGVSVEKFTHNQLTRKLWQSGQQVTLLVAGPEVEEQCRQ
Chain of MAST1, Q9Y2H9 (Q9Y2H9 962-1065): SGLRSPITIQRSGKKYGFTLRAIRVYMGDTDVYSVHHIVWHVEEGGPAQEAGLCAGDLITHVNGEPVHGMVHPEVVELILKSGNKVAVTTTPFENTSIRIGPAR
Chain of GRID2IP_1, A4D2P6 (A4D2P6 1-87): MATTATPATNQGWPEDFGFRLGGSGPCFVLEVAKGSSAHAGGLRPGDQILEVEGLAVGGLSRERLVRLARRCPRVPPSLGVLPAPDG
Chain of IL16_4, Q14005 (Q14005 1229-1329): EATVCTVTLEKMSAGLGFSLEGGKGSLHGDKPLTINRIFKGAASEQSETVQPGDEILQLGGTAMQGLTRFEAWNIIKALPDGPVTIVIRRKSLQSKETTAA
Chain of HTRA2, O43464 (O43464 355-458): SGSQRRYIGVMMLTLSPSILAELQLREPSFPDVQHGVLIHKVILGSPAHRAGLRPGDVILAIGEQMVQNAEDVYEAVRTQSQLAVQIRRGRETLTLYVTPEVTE
Chain of MAST2, Q6P0Q8 (Q6P0Q8 1099-1202): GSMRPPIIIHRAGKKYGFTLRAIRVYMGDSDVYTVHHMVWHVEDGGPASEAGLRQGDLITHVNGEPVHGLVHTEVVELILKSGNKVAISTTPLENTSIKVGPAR
Chain of GRID2IP_2, A4D2P6 (A4D2P6 272-370): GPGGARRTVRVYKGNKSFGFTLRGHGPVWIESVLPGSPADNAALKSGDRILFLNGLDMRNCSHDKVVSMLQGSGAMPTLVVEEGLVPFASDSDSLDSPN
Chain of PDZRN4_1, Q6ZMN7 (Q6ZMN7 213-318): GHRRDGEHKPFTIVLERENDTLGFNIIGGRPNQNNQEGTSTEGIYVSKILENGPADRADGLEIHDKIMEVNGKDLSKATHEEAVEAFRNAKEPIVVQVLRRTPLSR
Chain of LNX1_3, Q8TBB1 (Q8TBB1 500-596): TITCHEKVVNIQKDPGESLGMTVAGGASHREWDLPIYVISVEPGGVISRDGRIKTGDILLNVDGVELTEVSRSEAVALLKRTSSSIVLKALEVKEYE
Chain of MAGI2_3, Q86UL8 (Q86UL8 600-682): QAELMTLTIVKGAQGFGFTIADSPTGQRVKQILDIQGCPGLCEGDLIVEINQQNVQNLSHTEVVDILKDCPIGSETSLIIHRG
Chain of Inadl_3, Q8NI35 (Q8NI35 359-469): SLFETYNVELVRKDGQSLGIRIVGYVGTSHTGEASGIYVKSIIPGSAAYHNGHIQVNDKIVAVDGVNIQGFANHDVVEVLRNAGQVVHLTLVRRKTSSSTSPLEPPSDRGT
Chain of TJP2_1, Q9UDY2 (Q9UDY2 24-128): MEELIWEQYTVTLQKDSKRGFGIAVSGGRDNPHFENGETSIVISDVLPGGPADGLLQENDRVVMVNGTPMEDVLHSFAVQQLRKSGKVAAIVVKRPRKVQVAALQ
Chain of LNX1_2, Q8TBB1 (Q8TBB1 371-470): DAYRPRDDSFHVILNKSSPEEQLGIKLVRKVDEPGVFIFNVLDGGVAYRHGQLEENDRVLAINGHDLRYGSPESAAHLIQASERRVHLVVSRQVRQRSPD
Chain of CASK, O14936 (O14936 487-570): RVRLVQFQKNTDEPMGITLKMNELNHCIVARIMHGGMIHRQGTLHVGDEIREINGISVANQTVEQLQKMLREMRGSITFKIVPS
Chain of MAGI2_4, Q86UL8 (Q86UL8 772-865): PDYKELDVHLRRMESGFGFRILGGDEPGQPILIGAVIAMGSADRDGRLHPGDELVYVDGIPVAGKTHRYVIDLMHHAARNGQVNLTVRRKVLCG
Chain of FRMPD3, Q5JV73 (Q5JV73 12-100): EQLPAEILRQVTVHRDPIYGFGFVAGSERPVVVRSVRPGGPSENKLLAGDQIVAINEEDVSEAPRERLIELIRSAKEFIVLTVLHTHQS

pKd (APBA1_1, Q02410; [1]): below the threshold
pKd (CASK, O14936; [1]): below the threshold
pKd (DLG3_3, Q92796; [1]): below the threshold
pKd (FRMPD3, Q5JV73; [1]): 3.6
pKd (GOPC, Q9HD26; [1]): below the threshold
pKd (GORASP2, Q9H8Y8; [1]): 3.48
pKd (GRID2IP_1, A4D2P6; [1]): below the threshold
pKd (GRID2IP_2, A4D2P6; [1]): below the threshold
pKd (HTRA2, O43464; [1]): 3.52
pKd (IL16_4, Q14005; [1]): below the threshold
pKd (Inadl_3, Q8NI35; [1]): below the threshold
pKd (Inadl_9, Q8NI35; [1]): below the threshold
pKd (LIMK2, P53671; [1]): below the threshold
pKd (LNX1_2, Q8TBB1; [1]): below the threshold
pKd (LNX1_3, Q8TBB1; [1]): below the threshold
pKd (LNX2_2, Q8N448; [1]): 3.48
pKd (MAGI2_3, Q86UL8; [1]): below the threshold
pKd (MAGI2_4, Q86UL8; [1]): below the threshold
pKd (MAST1, Q9Y2H9; [1]): 4.19
pKd (MAST2, Q6P0Q8; [1]): 5.31
pKd (NHERF4_2, Q86UT5; [1]): below the threshold
pKd (PDZD7_3, Q9H5P4; [1]): 3.59
pKd (PDZRN3_1, Q9UPQ7; [1]): below the threshold
pKd (PDZRN4_1, Q6ZMN7; [1]): below the threshold
pKd (RADIL, Q96JH8; [1]): below the threshold
pKd (RHPN1, Q8TCX5; [1]): 4.1
pKd (SNTG2, Q9NY99; [1]): below the threshold
pKd (TJP1_2, Q07157; [1]): below the threshold
pKd (TJP2_1, Q9UDY2; [1]): below the threshold
Binder: DLDEEEDTHL [PODXL, O00592]

pKd (APBA1_1, Q02410; [2]): below the threshold
pKd (CASK, O14936; [2]): below the threshold
pKd (DLG3_3, Q92796; [2]): below the threshold
pKd (FRMPD3, Q5JV73; [2]): below the threshold
pKd (GOPC, Q9HD26; [2]): 3.75
pKd (GORASP2, Q9H8Y8; [2]): below the threshold
pKd (GRID2IP_1, A4D2P6; [2]): below the threshold
pKd (GRID2IP_2, A4D2P6; [2]): below the threshold
pKd (HTRA2, O43464; [2]): below the threshold
pKd (IL16_4, Q14005; [2]): below the threshold
pKd (Inadl_3, Q8NI35; [2]): below the threshold
pKd (Inadl_9, Q8NI35; [2]): 4.08
pKd (LIMK2, P53671; [2]): below the threshold
pKd (LNX1_2, Q8TBB1; [2]): below the threshold
pKd (LNX1_3, Q8TBB1; [2]): below the threshold
pKd (LNX2_2, Q8N448; [2]): below the threshold
pKd (MAGI2_3, Q86UL8; [2]): below the threshold
pKd (MAGI2_4, Q86UL8; [2]): below the threshold
pKd (MAST1, Q9Y2H9; [2]): below the threshold
pKd (MAST2, Q6P0Q8; [2]): below the threshold
pKd (NHERF4_2, Q86UT5; [2]): below the threshold
pKd (PDZD7_3, Q9H5P4; [2]): below the threshold
pKd (PDZRN3_1, Q9UPQ7; [2]): 3.56
pKd (PDZRN4_1, Q6ZMN7; [2]): below the threshold
pKd (RADIL, Q96JH8; [2]): 3.61
pKd (RHPN1, Q8TCX5; [2]): below the threshold
pKd (SNTG2, Q9NY99; [2]): below the threshold
pKd (TJP1_2, Q07157; [2]): below the threshold
pKd (TJP2_1, Q9UDY2; [2]): below the threshold
Binder: SQDPKKPSRV [CBY2, Q8NA61]

pKd (APBA1_1, Q02410; [2]): below the threshold
pKd (CASK, O14936; [2]): below the threshold
pKd (DLG3_3, Q92796; [2]): 4.02
pKd (FRMPD3, Q5JV73; [2]): below the threshold
pKd (GOPC, Q9HD26; [2]): 3.58
pKd (GORASP2, Q9H8Y8; [2]): below the threshold
pKd (GRID2IP_1, A4D2P6; [2]): below the threshold
pKd (GRID2IP_2, A4D2P6; [2]): 3.79
pKd (HTRA2, O43464; [2]): below the threshold
pKd (IL16_4, Q14005; [2]): 3.52
pKd (Inadl_3, Q8NI35; [2]): 3.53
pKd (Inadl_9, Q8NI35; [2]): 3.49
pKd (LIMK2, P53671; [2]): below the threshold
pKd (LNX1_2, Q8TBB1; [2]): below the threshold
pKd (LNX1_3, Q8TBB1; [2]): below the threshold
pKd (LNX2_2, Q8N448; [2]): 3.73
pKd (MAGI2_3, Q86UL8; [2]): 4.61
pKd (MAGI2_4, Q86UL8; [2]): below the threshold
pKd (MAST1, Q9Y2H9; [2]): 4.89
pKd (MAST2, Q6P0Q8; [2]): 5.47
pKd (NHERF4_2, Q86UT5; [2]): below the threshold
pKd (PDZD7_3, Q9H5P4; [2]): 4.59
pKd (PDZRN3_1, Q9UPQ7; [2]): 4.75
pKd (PDZRN4_1, Q6ZMN7; [2]): 4.7
pKd (RADIL, Q96JH8; [2]): below the threshold
pKd (RHPN1, Q8TCX5; [2]): 4.77
pKd (SNTG2, Q9NY99; [2]): 4.8
pKd (TJP1_2, Q07157; [2]): below the threshold
pKd (TJP2_1, Q9UDY2; [2]): below the threshold
Binder: IGHEDLETAV [DGKI, O75912]

pKd (APBA1_1, Q02410; [3]): below the threshold
pKd (CASK, O14936; [3]): below the threshold
pKd (DLG3_3, Q92796; [3]): 3.68
pKd (FRMPD3, Q5JV73; [3]): below the threshold
pKd (GOPC, Q9HD26; [3]): 3.75
pKd (GORASP2, Q9H8Y8; [3]): below the threshold
pKd (GRID2IP_1, A4D2P6; [3]): below the threshold
pKd (GRID2IP_2, A4D2P6; [3]): below the threshold
pKd (HTRA2, O43464; [3]): below the threshold
pKd (IL16_4, Q14005; [3]): below the threshold
pKd (Inadl_3, Q8NI35; [3]): 3.7
pKd (Inadl_9, Q8NI35; [3]): 3.57
pKd (LIMK2, P53671; [3]): below the threshold
pKd (LNX1_2, Q8TBB1; [3]): below the threshold
pKd (LNX1_3, Q8TBB1; [3]): below the threshold
pKd (LNX2_2, Q8N448; [3]): 3.96
pKd (MAGI2_3, Q86UL8; [3]): below the threshold
pKd (MAGI2_4, Q86UL8; [3]): below the threshold
pKd (MAST1, Q9Y2H9; [3]): 3.67
pKd (MAST2, Q6P0Q8; [3]): 4.38
pKd (NHERF4_2, Q86UT5; [3]): below the threshold
pKd (PDZD7_3, Q9H5P4; [3]): 3.87
pKd (PDZRN3_1, Q9UPQ7; [3]): below the threshold
pKd (PDZRN4_1, Q6ZMN7; [3]): below the threshold
pKd (RADIL, Q96JH8; [3]): below the threshold
pKd (RHPN1, Q8TCX5; [3]): 4.09
pKd (SNTG2, Q9NY99; [3]): 3.5
pKd (TJP1_2, Q07157; [3]): below the threshold
pKd (TJP2_1, Q9UDY2; [3]): below the threshold
Binder: HSATSVHTSV [MTMR1, Q13613]

pKd (APBA1_1, Q02410; [1]): below the threshold
pKd (CASK, O14936; [1]): below the threshold
pKd (DLG3_3, Q92796; [1]): 4.01
pKd (FRMPD3, Q5JV73; [1]): below the threshold
pKd (GOPC, Q9HD26; [1]): below the threshold
pKd (GORASP2, Q9H8Y8; [1]): below the threshold
pKd (GRID2IP_1, A4D2P6; [1]): below the threshold
pKd (GRID2IP_2, A4D2P6; [1]): 3.53
pKd (HTRA2, O43464; [1]): below the threshold
pKd (IL16_4, Q14005; [1]): 3.58
pKd (Inadl_3, Q8NI35; [1]): below the threshold
pKd (Inadl_9, Q8NI35; [1]): below the threshold
pKd (LIMK2, P53671; [1]): below the threshold
pKd (LNX1_2, Q8TBB1; [1]): below the threshold
pKd (LNX1_3, Q8TBB1; [1]): below the threshold
pKd (LNX2_2, Q8N448; [1]): below the threshold
pKd (MAGI2_3, Q86UL8; [1]): below the threshold
pKd (MAGI2_4, Q86UL8; [1]): below the threshold
pKd (MAST1, Q9Y2H9; [1]): 4.65
pKd (MAST2, Q6P0Q8; [1]): 4.78
pKd (NHERF4_2, Q86UT5; [1]): below the threshold
pKd (PDZD7_3, Q9H5P4; [1]): 3.86
pKd (PDZRN3_1, Q9UPQ7; [1]): 4.84
pKd (PDZRN4_1, Q6ZMN7; [1]): 4.71
pKd (RADIL, Q96JH8; [1]): below the threshold
pKd (RHPN1, Q8TCX5; [1]): below the threshold
pKd (SNTG2, Q9NY99; [1]): 4.18
pKd (TJP1_2, Q07157; [1]): below the threshold
pKd (TJP2_1, Q9UDY2; [1]): below the threshold
Binder: GARVSKETPL [MAPK12, P53778]
